Data set [1] addresses Rtt109 D288N (with Vps75) (Saccharomyces cerevisiae, UniProt P53853+Q07794, D288N). In kind it is biochemical, yeast (Saccharomyces cerevisiae).
The target in data set [2] is T1, Rtt109 D287A/D288A (with Vps75) (Saccharomyces cerevisiae, UniProt P53853+Q07794, D287A/D288A). In kind it is biochemical, yeast (Saccharomyces cerevisiae). The conditions noted are these: H3 peptide saturation.
Data set [3] deals with T1, Rtt109 D287A/D288A (with Vps75). In kind it is biochemical, yeast (Saccharomyces cerevisiae).
Data set [4] concerns the target Rtt109 D287N (with Vps75) (Saccharomyces cerevisiae, UniProt P53853+Q07794, D287N). In kind it is biochemical, yeast (Saccharomyces cerevisiae). The conditions noted are these: H3 peptide saturation.
The next data set concerns Esa1. The conditions noted are these: E338Q vs wildtype Esa1, ref [35]; cited from earlier work.

Where a chain is given by its changes, count along the chain named. In names and notes the source's numbering stands. Several values for one entry are separate records, joined by “and”; a condition that tells them apart may be missing. Identical values can stand only once.

Chain of Rtt109 D288N (with Vps75) (P53853 whole entry, one chain of several): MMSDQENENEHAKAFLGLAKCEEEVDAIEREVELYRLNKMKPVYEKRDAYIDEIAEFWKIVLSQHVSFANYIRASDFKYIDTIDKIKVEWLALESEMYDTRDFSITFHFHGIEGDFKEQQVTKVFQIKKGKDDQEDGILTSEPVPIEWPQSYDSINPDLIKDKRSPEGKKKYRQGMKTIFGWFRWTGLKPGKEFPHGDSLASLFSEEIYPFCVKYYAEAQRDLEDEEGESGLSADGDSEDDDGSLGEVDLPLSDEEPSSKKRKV
T1 sequence (Q07794 whole entry D287A/D288A): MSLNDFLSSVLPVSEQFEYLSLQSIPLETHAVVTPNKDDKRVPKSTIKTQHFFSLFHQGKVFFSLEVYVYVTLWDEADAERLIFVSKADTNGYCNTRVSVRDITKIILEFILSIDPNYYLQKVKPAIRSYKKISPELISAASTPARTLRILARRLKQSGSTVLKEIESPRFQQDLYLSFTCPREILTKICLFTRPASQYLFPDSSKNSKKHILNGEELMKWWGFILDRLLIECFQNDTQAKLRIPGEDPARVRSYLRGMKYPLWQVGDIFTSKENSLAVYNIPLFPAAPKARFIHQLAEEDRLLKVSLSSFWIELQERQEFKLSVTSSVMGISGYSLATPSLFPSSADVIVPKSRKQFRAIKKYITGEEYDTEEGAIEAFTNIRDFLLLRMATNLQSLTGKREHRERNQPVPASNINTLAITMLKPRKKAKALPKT
T1 sequence (P53853 whole entry): as the sequence (P53853 whole entry, one chain of several) above
Chain of Rtt109 D287N (with Vps75) (P53853 whole entry): as the sequence (P53853 whole entry, one chain of several) above
Chain of Rtt109 D287N (with Vps75) (Q07794 whole entry D287N): as the sequence (Q07794 whole entry D287A/D288A) above, with A287N, A288D counted along it

B1: D288N: single point mutant of Rtt109 (protein, UniProt Q07794 1-436, looked up, variant D288N)
Histone acetyltransferase …: MSLNDFLSSVLPVSEQFEYLSLQSIPLETHAVVTPNKDDKRVPKSTIKTQHFFSLFHQGKVFFSLEVYVYVTLWDEADAERLIFVSKADTNGYCNTRVSVRDITKIILEFILSIDPNYYLQKVKPAIRSYKKISPELISAASTPARTLRILARRLKQSGSTVLKEIESPRFQQDLYLSFTCPREILTKICLFTRPASQYLFPDSSKNSKKHILNGEELMKWWGFILDRLLIECFQNDTQAKLRIPGEDPARVRSYLRGMKYPLWQVGDIFTSKENSLAVYNIPLFPDNPKARFIHQLAEEDRLLKVSLSSFWIELQERQEFKLSVTSSVMGISGYSLATPSLFPSSADVIVPKSRKQFRAIKKYITGEEYDTEEGAIEAFTNIRDFLLLRMATNLQSLTGKREHRERNQPVPASNINTLAITMLKPRKKAKALPKT
Regarding B1, in data set [1] (AcCoA), the “decrease in kcat/Km for AcCoA” value was 1000 fold and the “decrease of kcat/Km for AcCoA versus wildtype” value is ~3 orders of magnitude. Besides, the “increase in Km for AcCoA versus wildtype” value in data set [1] (AcCoA saturation) is listed as about 16 fold. Besides, the “decrease of kcat versus wildtype” value in data set [1] (H3 peptide saturation) was ~50 fold and 50-100 fold.

B2: D287A/D288A: double point mutant of Rtt109 (protein, UniProt Q07794 1-436, looked up, variant D287A D288A)
Histone acetyltransferase …: B1 Histone acetyltransferase … with D287A, N288A
Take B2: the “decrease of kcat versus wildtype” value in data set [2] is ~100 fold and 50-100 fold. In addition, the “downward shift of apparent pKa versus wildtype” value in data set [3] (D287A/D288A kcat pH profile) is recorded as about 1 pH unit. For the same molecule, the “pKa from kcat pH profile” value in data set [3] (D287A/D288A, ATE buffer, pH 7-9, 25 °C, 400 μM H3 peptide, 60 μM AcCoA, twice in duplicate, Eq. 11) is recorded as 7.5 ± 0.1.

B3: D287N: single point mutant of Rtt109 (protein, UniProt Q07794 1-436, looked up, variant D287N)
Histone acetyltransferase …: B1 Histone acetyltransferase … with D287N, N288D
On to B3, for which the “decrease in activity (kcat) versus wildtype” value in data set [4] was about 10 fold.

B4: E338Q: Esa1 with mutation of the general base catalyst Glu-338 (protein, UniProt Q08649 1-445, looked up, variant E338Q)
Histone acetyltransferase ESA1: MSHDGKEEPGIAKKINSVDDIIIKCQCWVQKNDEERLAEILSINTRKAPPKFYVHYVNYNKRLDEWITTDRINLDKEVLYPKLKATDEDNKKQKKKKATNTSETPQDSLQDGVDGFSRENTDVMDLDNLNVQGIKDENISHEDEIKKLRTSGSMTQNPHEVARVRNLNRIIMGKYEIEPWYFSPYPIELTDEDFIYIDDFTLQYFGSKKQYERYRKKCTLRHPPGNEIYRDDYVSFFEIDGRKQRTWCRNLCLLSKLFLDHKTLYYDVDPFLFYCMTRRDELGHHLVGYFSKEKESADGYNVACILTLPQYQRMGYGKLLIEFSYELSKKENKVGSPQKPLSDLGLLSYRAYWSDTLITLLVEHQKEITIDEISSMTSMTTTDILHTAKTLNILRYYKGQHIIFLNEDILDRYNRLKAKKRRTIDPNRLIWKPPVFTASQLRFAW
For the molecule B4, the “upward shift of pKa of ionizable group” value in the data set with Esa1 was 1.4 pH-units.

Source of the values: article PMC2917178 (Biochemistry, 2010).
